Experimental data as given in doi:10.1101/2020.05.21.107789.
Read-outs that look alike come from different tables or passages of the source.

Assays:
[1] = target: N-terminally V5-tagged Asp272Ala^TEAD4 (full length) (human) (UniProt Q15561); assay: co-IP
[2] = target: TEAD4 (recombinant protein of the TR-FRET and SPR assays) (human); assay: AlphaScreen or HTRF
[3] = target: wt^Sd (Scalloped residues 223-440), N-biotinylated-Avitagged (Drosophila melanogaster) (UniProt P30052); assay: SPR
[4] = target: TEAD4 (recombinant protein of the TR-FRET and SPR assays) (human); assay: SPR
[5] = target: TEAD4 (recombinant protein of the TR-FRET and SPR assays) (human); assay: SPR; remark: listed apart in the source

Sequence of wt^Sd (Scalloped residues 223-440), N-biotinylated-Avitagged (Drosophila melanogaster) (P30052 223-440): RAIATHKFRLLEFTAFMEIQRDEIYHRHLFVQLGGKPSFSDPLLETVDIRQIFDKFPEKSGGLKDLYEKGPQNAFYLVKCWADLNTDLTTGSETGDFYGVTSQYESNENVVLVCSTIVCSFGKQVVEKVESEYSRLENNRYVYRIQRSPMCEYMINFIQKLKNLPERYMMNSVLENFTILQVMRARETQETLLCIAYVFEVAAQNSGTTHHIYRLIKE
Sequence of N-terminally V5-tagged Asp272Ala^TEAD4 (full length) (human) (Q15561 whole entry D272A): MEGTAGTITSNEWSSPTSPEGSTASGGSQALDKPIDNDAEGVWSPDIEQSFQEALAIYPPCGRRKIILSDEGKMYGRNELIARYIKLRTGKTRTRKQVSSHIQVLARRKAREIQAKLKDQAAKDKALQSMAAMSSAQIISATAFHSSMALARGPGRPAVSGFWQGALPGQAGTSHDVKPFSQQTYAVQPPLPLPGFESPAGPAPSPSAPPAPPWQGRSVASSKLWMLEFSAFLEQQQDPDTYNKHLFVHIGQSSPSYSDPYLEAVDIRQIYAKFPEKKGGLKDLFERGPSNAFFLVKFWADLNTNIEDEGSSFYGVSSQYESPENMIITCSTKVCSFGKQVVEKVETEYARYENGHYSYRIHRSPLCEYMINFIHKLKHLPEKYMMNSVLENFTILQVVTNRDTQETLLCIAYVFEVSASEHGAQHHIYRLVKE

(FLAG)3-delΩ^VGLL2 (full-length VGLL2 with the Ω-loop deleted) (from UniProt Q8N8G2-1 1-317) (natural protein)
fold reduction of co-IP (IP over input) against wt^TEAD4 with wt^VGLL2 [1]: 2 fold

VGLL3^140-154 (region of human VGLL3 aligned with the Ω-loop of Vg) (from UniProt A8MV65 140-154) (peptide)
IC50 [2]: > 500000 nM

YAP^85-99 (Ω-loop of YAP) (from UniProt P46937 85-99) (peptide)
IC50 [2]: 98000 nM

Vg^298-337 (Vestigial Sd-binding domain without the putative β-strand) (from UniProt Q26366 298-337) (peptide)
Kd [3]: 61 nM

Ac-PMSQRSFPASFWNSA-NH2 [VGLL2^135-149 (Ω-loop region of human VGLL2)]
IC50 [2]: 133000 nM

Ac-PMSNRNFPPSFWNSN-NH2 [Vg^323-337 (Ω-loop of Vestigial)]
IC50 [2]: 157000 nM

Ac-CVLFTYFQGDISSVVDEHFSRALS-NH2 [VGLL2^85-108 (β-strand:α-helix of human VGLL2)]
Kd [4]: 590 nM

B1: VGLL2^85-149 (β-strand:α-helix:Ω-loop of human VGLL2) (peptide)
peptide: Ac-CVLFTYFQGDISSVVDEHFSRALSQPSSYSPSCTSSKAPRSSGPWRDCSFPMSQRSFPASFWNSA-NH2
Kd [4]: 34 nM

Ac-CVVFTNYSGDTASQVDEHFSRALNYNNKDSKESSSPMSNRNFPPSFWNSN-NH2 [Vg^288-337 (TONDU domain and Ω-loop of Vestigial)]
Kd [5]: 3.1 nM | Kd [4]: 4.1 nM
